Legend:
human THAP1 (THanatos …) [1] = biological target: T1, human THAP1 (THanatos (death)-Associated Protein-1), full length (human, UniProt Q9NVV9 1-213); assay: yeast two-hybrid, pGADT7-THAP1 with pGBKT7-IFNγ
T1 construct: also called hTHAP1; FLJ10477
T1 sequence: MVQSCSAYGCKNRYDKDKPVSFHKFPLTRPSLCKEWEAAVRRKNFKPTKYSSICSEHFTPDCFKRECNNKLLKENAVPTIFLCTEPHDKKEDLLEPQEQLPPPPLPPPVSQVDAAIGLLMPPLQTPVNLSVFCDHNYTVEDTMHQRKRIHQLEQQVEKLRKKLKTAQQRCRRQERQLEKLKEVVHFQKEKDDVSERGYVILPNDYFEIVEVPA
Description: […]

[2] = biological target: T2, GST-THAP1 fusion protein (pGEX-2T-THAP1) (human, UniProt Q5RCE4 1-213 (Pongo abelii entry)); assay: GST pull-down, immobilized GST-THAP1, in vitro translated 35S-labelled IFNγ
T2 construct: Expressed in E. coli DH5alpha and immobilized on glutathione sepharose; also called GST-THAP1 wild-type; not shown: Glutathione S-transferase (GST) encoded by the pGEX-2T prokaryotic expression vector (Amersham Pharmacia Biotech); N-ter
T2 sequence: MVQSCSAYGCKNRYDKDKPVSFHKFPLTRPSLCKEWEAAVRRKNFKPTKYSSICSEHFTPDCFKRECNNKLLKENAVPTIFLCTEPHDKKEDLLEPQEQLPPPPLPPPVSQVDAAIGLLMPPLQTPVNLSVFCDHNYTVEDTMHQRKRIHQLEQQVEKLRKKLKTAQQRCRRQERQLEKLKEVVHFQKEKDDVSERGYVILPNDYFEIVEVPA
Protocol: To confirm the interaction observed in yeast two-hybrid system, we performed in vitro GST pull down assays. THAP1, expressed as a GST-tagged fusion protein and immobilized on glutathione sepharose, was incubated with radiolabeled chemokines that were translated in vitro.
In vitro-translated chemokines were generated with the TNT-coupled reticulocyte lysate system (Promega, Madison, Wis., USA) using as templates pGBKT7-CCL21, -CCL19, -CXCL9, -CXCL10 and CXCL11 chemokine vectors (see Example 32) or pCMV-SPORT6-CCL5 plasmid (Image clone No. 4185200). In vitro-translated IFNγ cytokine was generated similarly using as template plasmid pGBKT7-IFNγ. A 25 μvolume of ³⁵S-labelled chemokine was incubated with immobilized GST-THAP1 or GST proteins overnight at 4° C., in the following binding buffer: 10 mM NaPO4 pH 8.0, 140 mM NaCl, 3 mM MgCl₂, 1 mM dithiothreitol (DTT), 0.05% NP40, and 0.2 mM phenylmethyl sulphonyl fluoride (PMSF), 1 mM Na vanadate, 50 mM β-glycerophosphate, 25 μg/ml chymotrypsine, 5 μg/ml aprotinin, and 10 μg/ml leupeptin. Beads were then washed 5 times in 1 ml binding buffer. Bound proteins were eluted with 2×Laemmli SDS-PAGE sample buffer, fractionated by 10% SDS-PAGE and visualized by fluorography using Amplify (Amersham Pharmacia Biotech). GST/THAP1 specifically bound to chemokines CCL21, CCL19, CCL5, CXCL9, CXCL10 and CXCL11 but not cytokine IFNγ (FIGS. 19 and 20). […]

[3] = biological target: T3, Glutathione S-transferase (GST) control protein (pGEX-2T) (UniProt P08515 1-218 = GST); assay: GST pull-down, immobilized GST control, in vitro translated 35S-labelled IFNγ
T3 construct: Negative control immobilized on glutathione sepharose; also called GST beads; immobilized GST alone
Protocol: In vitro-translated chemokines were generated with the TNT-coupled reticulocyte lysate system (Promega, Madison, Wis., USA) using as templates pGBKT7-CCL21, -CCL19, -CXCL9, -CXCL10 and CXCL11 chemokine vectors (see Example 32) or pCMV-SPORT6-CCL5 plasmid (Image clone No. 4185200). In vitro-translated IFNγ cytokine was generated similarly using as template plasmid pGBKT7-IFNγ. A 25 μvolume of ³⁵S-labelled chemokine was incubated with immobilized GST-THAP1 or GST proteins overnight at 4° C., in the following binding buffer: 10 mM NaPO4 pH 8.0, 140 mM NaCl, 3 mM MgCl₂, 1 mM dithiothreitol (DTT), 0.05% NP40, and 0.2 mM phenylmethyl sulphonyl fluoride (PMSF), 1 mM Na vanadate, 50 mM β-glycerophosphate, 25 μg/ml chymotrypsine, 5 μg/ml aprotinin, and 10 μg/ml leupeptin. Beads were then washed 5 times in 1 ml binding buffer. Bound proteins were eluted with 2×Laemmli SDS-PAGE sample buffer, fractionated by 10% SDS-PAGE and visualized by fluorography using Amplify (Amersham Pharmacia Biotech). GST/THAP1 specifically bound to chemokines CCL21, CCL19, CCL5, CXCL9, CXCL10 and CXCL11 but not cytokine IFNγ (FIGS. 19 and 20). […] CXCL10 also bound to immobilized GST-THAP1 (indicated by ++ in the column labelled “In vitro binding to GST-THAP1”).

[4] = biological target: T4, human chemokine SLC/CCL21, mature form (amino acids 24-134) (human, UniProt O00585 24-134); assay: yeast two-hybrid, pGADT7-THAP1 mutant with pGBKT7-SLC/CCL21
T4 construct: also called SLC/6Ckine; SLC/CCL21 wild type
T4 sequence: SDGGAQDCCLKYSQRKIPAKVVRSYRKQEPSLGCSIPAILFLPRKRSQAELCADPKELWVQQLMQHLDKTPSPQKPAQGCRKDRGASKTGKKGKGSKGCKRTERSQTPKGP
Protocol: Two-hybrid interaction between THAP1 mutants and chemokine SLC/CCL21 was tested by cotransformation of AH109 with pGADT7-THAP1-C1, -C2, -C3, -N1, -N2 or -N3 and pGBKT7-SLC/CCL21 and selection of transformants by His and Ade double auxotrophy according to manufacturer's instructions ([…] two-hybrid system 3, Clontech). pGBKT7-SLC/CCL21 vector was generated by subcloning the BamHI SLC/CCL21 fragment from pGBT9-SLC (see example 1) into the unique BamHI cloning site of vector pGBKT7 (Clontech).

human THAP1 (THanatos …) [5] = biological target: T1, human THAP1 (THanatos …); assay: yeast two-hybrid, pGADT7-THAP1 mutant with pGBKT7-THAP1 wild-type
Protocol: Two-hybrid interaction between THAP1 mutants and THAP1 wild type was tested by cotransformation of AH109 with pGADT7-THAP1-C1, -C2, -C3, -N1, -N2 or -N3 and pGBKT7-THAP1 wild-type and selection of transformants by His and Ade double auxotrophy according to manufacturer's instructions ([…] two-hybrid system 3, Clontech).

[6] = biological target: T2, GST-THAP1 fusion protein (pGEX-2T-THAP1); assay: GST pull-down, immobilized GST-THAP1, in vitro translated 35S-labelled mutant
Protocol: To confirm the results obtained in yeast, THAP1 mutants were also tested in in vitro GST pull down assays. Wild type THAP1 expressed as a GST-tagged fusion protein and immobilized on glutathione sepharose (as described in example 16), was incubated with radiolabeled in vitro translated THAP1 mutants. In vitro-translated THAP1 mutants were generated with the TNT-coupled reticulocyte lysate system (Promega, Madison, Wis., USA) using pGADT7-THAP1-C1, -C2, -C3, -N1, -N2 or -N3 vector as template. 25 μl of each ³⁵S-labelled THAP1 mutant was incubated with immobilized GST or GST-THAP1 wild-type protein overnight at 4° C., in the following binding buffer: 10 mM NaPO4 pH 8.0, 140 mM NaCl, 3 mM MgCl2, 1 mM dithiothreitol (DTT), 0.05% NP40, and 0.2 mM phenylmethyl sulphonyl fluoride (PMSF), 1 mM Na Vanadate, 50 mM β Glycerophosphate, 25 μg/ml chimotrypsine, 5 μg/ml aprotinin, 10 μg/ml Leupeptin. Beads were then washed 5 times in 1 ml binding buffer. Bound proteins were eluted with 2×Laemmli SDS-PAGE sample buffer, fractionated by 10% SDS-PAGE and visualized by fluorography using Amplify (Amersham Pharmacia Biotech). As expected, THAP1-C1, -C2, -C3, -and -N3 interacted with GST/THAP1 (FIG. 16B).

Measured: binding result

T3 sequence (P08515 whole entry): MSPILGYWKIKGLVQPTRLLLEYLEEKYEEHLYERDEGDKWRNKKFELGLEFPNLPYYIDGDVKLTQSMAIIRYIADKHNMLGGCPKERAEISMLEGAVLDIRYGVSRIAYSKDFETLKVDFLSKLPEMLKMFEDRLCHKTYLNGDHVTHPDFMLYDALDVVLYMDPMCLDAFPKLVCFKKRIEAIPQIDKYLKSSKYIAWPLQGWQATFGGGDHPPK

B1: human cytokine IFNγ (amino acids 21-166) (ligand)
chain: CYCQDPYVKEAENLKKYFNAGHSDVADNGTLFLGILKNWKEESDRKIMQSQIVSFYFKLFKNFKDDQSIQKSVETIKEDMNVKFFNSNKKKRDDFEKLTNYSVTDLNVQRKAIHELIQVMAELSPAAKTGKRKRSQMLFQGRRASQ
notes: Negative control; The range is stated on the GenBank entry; Tested as a Gal4-BD fusion (pGBKT7-IFNγ) and as in vitro translated 35S-labelled protein from that vector; also called interferon gamma; hIFNγ
no binding: human THAP1 (THanatos …) [1] | [2] | [3]

B2: THAP1-N1 deletion mutant (amino acids 1-90) (other)
chain: MVQSCSAYGCKNRYDKDKPVSFHKFPLTRPSLCKEWEAAVRRKNFKPTKYSSICSEHFTPDCFKRECNNKLLKENAVPTIFLCTEPHDKK
notes: Tested as a Gal4-BD or Gal4-AD fusion, as in vitro translated 35S-labelled protein and as an EGFP fusion
no binding: [4] | human THAP1 (THanatos …) [5] | [6]
